Values joined by “and” are separate entries in the source; they are usually repeats but may differ in a detail not shown here. Equal entries are not always repeated.

B2: AP205 maturation protein (Mat) (natural protein, Acinetobacter phage AP205)
chain: MNMYKWVPESIRDSGEGQPSYSNNGDYAPSGPWVAAGIHTMPQSLRDSMRNSIMVTAQARRDVIGPEWGPDGRFTGYASVIGTPDPKPADIVNKFTVERRPVSNGNFQQRVKAGDIVVAPYTSDGKITVKLVAGQKDISSTPDYDYRIDSSLASSAGFVVAGERWYYTKRHFIIPRYFQNWRMRRRKYVTGWVMPTFYSPKEIFNRLKDSLVPDTGLVTQVWADNNTKRMDFLTAMAEIPQTLSSFLDALGYLGSLIKDFKRRRFFLNKAHQRIRNKLGVSFAERRSQIVSKYDRKIASARKPAIIVKLRQRKEKALKALDKMRVREEKKMIREFATQAASLWLSFRYEIMPLYYQSQDVLDVIANSTSEFMTSRDFVAKAINIGIPLEWNLDQENLVSQPRHNVMVKSKLSPENNIGKTLSVNPFTTAWELLTLSFVVDWFVNFGDVIAGFTGGYSDDSGATASWRFDDKKVFHLKNIPSAMVIVDINFYTRQVIDPRLCGGLAFSPKLNLFRYLDAMSLSWNRSRLKISRAT
notes: maturation protein (Mat) of Acinetobacter phage AP205, 534 amino acids as printed; native protein in the virion, where two copies (inner and outer Mat) form a dimer; Native virion protein; models of both copies are in PDB 8TOC; also called inner Mat; outer Mat; source: in AP205 virions grown on A. gp16, purified (CsCl gradient)

The target of data set [1] is Acinetobacter genomosp. 16 type IV pilus (T4P) mature pilin (Acinetobacter genomosp. 16 (endogenous)). Put plainly: cryo-EM structure; purified AP205 and purified T4P mixed at 1:1 volume ratio at 30 C for 30 min; AP205 with two T4P at 3.6 A, with one T4P at 4.2 A; local maps of inner Mat-T4P at 8.2 A and outer Mat-T4P at 8.6 A.
Data set [2] deals with the molecule itself. Put plainly: cryo-EM structure; single-particle cryo-EM of purified apo AP205; asymmetric reconstruction of the mature virion at 3.1 A; icosahedral T=3 (3.2 A) and T=4 (3.4 A) particles from the same data.
Data set [3] concerns the target B2. Described as above. As to conditions: both partners purified.

B1: AP205 mature virion (complex)
chain 1: MNMYKWVPESIRDSGEGQPSYSNNGDYAPSGPWVAAGIHTMPQSLRDSMRNSIMVTAQARRDVIGPEWGPDGRFTGYASVIGTPDPKPADIVNKFTVERRPVSNGNFQQRVKAGDIVVAPYTSDGKITVKLVAGQKDISSTPDYDYRIDSSLASSAGFVVAGERWYYTKRHFIIPRYFQNWRMRRRKYVTGWVMPTFYSPKEIFNRLKDSLVPDTGLVTQVWADNNTKRMDFLTAMAEIPQTLSSFLDALGYLGSLIKDFKRRRFFLNKAHQRIRNKLGVSFAERRSQIVSKYDRKIASARKPAIIVKLRQRKEKALKALDKMRVREEKKMIREFATQAASLWLSFRYEIMPLYYQSQDVLDVIANSTSEFMTSRDFVAKAINIGIPLEWNLDQENLVSQPRHNVMVKSKLSPENNIGKTLSVNPFTTAWELLTLSFVVDWFVNFGDVIAGFTGGYSDDSGATASWRFDDKKVFHLKNIPSAMVIVDINFYTRQVIDPRLCGGLAFSPKLNLFRYLDAMSLSWNRSRLKISRAT
chain 2: ANKPMQPITSTANKIVWSDPTRLSTTFSASLLRQRVKVGIAELNNVSGQYVSVYKRPAPKPEGCADACVIMPNENQSIRTVISGSAENLATLKAEWETHKRNVDTLFASGNAGLGFLDPTAAIVSSDTT
For the molecule B1, in data set [1], the stoichiometry N is 2 and 1.

Take B2: the “stoichiometry N” value in data set [2] turned out to be 2.

B3: AP205 coat protein (Coat) (natural protein)
chain: ANKPMQPITSTANKIVWSDPTRLSTTFSASLLRQRVKVGIAELNNVSGQYVSVYKRPAPKPEGCADACVIMPNENQSIRTVISGSAENLATLKAEWETHKRNVDTLFASGNAGLGFLDPTAAIVSSDTT
notes: coat protein (Coat) of Acinetobacter phage AP205; native protein of the capsid shell; also forms T=3 and T=4 icosahedral particles; also called Coat-dimer; Coat shell; source: in AP205 virions and VLPs grown on A. gp16, purified (CsCl gradient)
For B3, the “stoichiometry N” value in data set [2] came out at 178. Besides, the binding result in data set [3] is “binds”.

(Values after PMC10980823, “Structural basis of Acinetobacter type IV pili targeting by an RNA virus” (Nature Communications, 2024).)
